The values below come from article doi:10.1101/845313.

Assay [1] has as its target SusF, purified recombinant (untagged) (Legionella pneumophila (Philadelphia-1 Lp01)) (UniProt Q5ZSL2). In words: SPR.
Assay [2] shares this target. Briefly: SPR. The source holds these as a separate data set.
The target of assay [3] is SusF co-expressed with SidI (Legionella pneumophila (Philadelphia-1 Lp01)). Briefly: SEC.

pKd: −log10 of the molar value. Like-named read-outs stand apart in the source and are kept apart here.

In the case of “His6-SidI (from UniProt Q5ZSL3 1-942) (natural protein)”, in assay [1], the negative logarithm of the Kd (pKd) is 8.51; the koff,1 (two-state model, first step) came out at 0.00051 s⁻¹; the koff,2 (two-state model, second step) is 0.00045 s⁻¹; the kon,1 (two-state model, first step) was 27000 M⁻¹ s⁻¹. The kon,2 (two-state model, second step) in assay [1] was determined as 0.0023 s⁻¹. Moreover, in assay [2], the pKd was 9.05, the koff was determined as 0.00019 s⁻¹ and the kon worked out at 220000 M⁻¹ s⁻¹.
“SidI co-expressed with SusF (natural protein)” had a stoichiometry N in assay [3] of 1.
